Experimental data published in patent US20260098072A1, “METHODS OF STIMULATING APPETITE AND/OR INCREASING BODY WEIGHT USING NON-NATURALLY OCCURRING MELANOCORTIN RECEPTOR ANTAGONIST ANALOGS” (Endevica Bio, Inc., priority 2022, published 2026).
Positions of bridges follow the written chain, without caps; N, C: chain ends. Non-standard residues stand in square brackets, D forms with d. No end group written: not given here. d2Nal = N[C@H](Cc1ccc2ccccc2c1)C(=O)O; Hyp = O=C(O)[C@@H]1C[C@@H](O)CN1; Nle = CCCC[C@H](N)C(=O)O

Columns and labels:
[1] = target: human melanocortin 3 receptor (MC3R) (human, UniProt P41968 1-323); assay: cell-based or functional assay
human melanocortin 3 receptor (MC3R), sequence (P41968 whole entry): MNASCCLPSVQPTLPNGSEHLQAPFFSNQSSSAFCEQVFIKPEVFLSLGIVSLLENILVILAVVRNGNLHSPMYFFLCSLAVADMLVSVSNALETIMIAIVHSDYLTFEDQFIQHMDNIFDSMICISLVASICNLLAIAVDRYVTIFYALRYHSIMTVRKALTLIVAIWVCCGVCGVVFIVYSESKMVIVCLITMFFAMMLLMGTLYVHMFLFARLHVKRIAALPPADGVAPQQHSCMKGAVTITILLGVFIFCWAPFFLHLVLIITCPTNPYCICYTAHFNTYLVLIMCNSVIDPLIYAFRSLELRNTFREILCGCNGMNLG

[2] = target: human melanocortin 4 receptor (MC4R) (human, UniProt P32245 1-332); assay: cell-based or functional assay
human melanocortin 4 receptor (MC4R), sequence (P32245 whole entry): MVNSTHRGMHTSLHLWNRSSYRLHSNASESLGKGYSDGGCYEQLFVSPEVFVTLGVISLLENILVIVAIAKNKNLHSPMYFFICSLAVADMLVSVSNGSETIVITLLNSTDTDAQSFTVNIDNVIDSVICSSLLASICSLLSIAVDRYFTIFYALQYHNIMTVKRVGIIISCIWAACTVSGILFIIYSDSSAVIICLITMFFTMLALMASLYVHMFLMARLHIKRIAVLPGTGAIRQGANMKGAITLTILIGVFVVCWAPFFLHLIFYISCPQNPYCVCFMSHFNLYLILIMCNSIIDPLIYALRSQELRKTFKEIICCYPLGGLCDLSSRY

Binder | IC50 (cAMP by HTRF, antagonist dose-response) [1] [µM] | Max Activation % [1] [%] | IC50 (cAMP by HTRF, antagonist dose-response) [2] [µM] | Max Activation % [2] [%]
Ac-[Nle]D[Hyp][d2Nal]RWK[dV][dP]-NH2 (lactam 2-7; SMILES CCCC[C@H](NC(C)=O)C(=O)N[C@H]1CC(=O)NCCCC[C@@H](C(=O)N[C@@H](C(=O)N2CCC[C@@H]2C(N)=O)C(C)C)NC(=O)[C@H](Cc2c[nH]c3ccccc23)NC(=O)[C@H](CCCNC(=N)N)NC(=O)[C@@H](Cc2ccc3ccccc3c2)NC(=O)[C@@H]2C[C@@H](O)CN2C1=O) [D3] | 0.087 | 111 | 0.0406 | 117
Ac-[Nle]DP[d2Nal]RWK[dV][dP]-NH2 (SMILES CCCC[C@H](NC(C)=O)C(=O)N[C@@H](CC(=O)O)C(=O)N1CCC[C@H]1C(=O)N[C@H](Cc1ccc2ccccc2c1)C(=O)N[C@@H](CCCNC(=N)N)C(=O)N[C@@H](Cc1c[nH]c2ccccc12)C(=O)N[C@@H](CCCCN)C(=O)N[C@@H](C(=O)N1CCC[C@@H]1C(N)=O)C(C)C) [A1] | 3.66 | 84.4 | 3.61 | 79.3
Ac-[Nle]DH[d2Nal]RWPK[dV][dP]-NH2 (lactam 2-8; SMILES CCCC[C@H](NC(C)=O)C(=O)N[C@H]1CC(=O)NCCCC[C@@H](C(=O)N[C@@H](C(=O)N2CCC[C@@H]2C(N)=O)C(C)C)NC(=O)[C@@H]2CCCN2C(=O)[C@H](Cc2c[nH]c3ccccc23)NC(=O)[C@H](CCCNC(=N)N)NC(=O)[C@@H](Cc2ccc3ccccc3c2)NC(=O)[C@H](Cc2c[nH]cn2)NC1=O) [D2] | – | 31.8 | – | 17.6
Ac-LDPFFRWKVP-NH2 (lactam 2-8; SMILES CC(=O)N[C@@H](CC(C)C)C(=O)N[C@H]1CC(=O)NCCCC[C@@H](C(=O)N[C@H](C(=O)N2CCC[C@H]2C(N)=O)C(C)C)NC(=O)[C@H](Cc2c[nH]c3ccccc23)NC(=O)[C@H](CCCNC(=N)N)NC(=O)[C@H](Cc2ccccc2)NC(=O)[C@H](Cc2ccccc2)NC(=O)[C@@H]2CCCN2C1=O) [B2] | – | 10.3 | – | 35.5
Ac-[Nle]DPH[d2Nal]RWK[dV][dP]-NH2 (lactam 2-8; SMILES CCCC[C@H](NC(C)=O)C(=O)N[C@H]1CC(=O)NCCCC[C@@H](C(=O)N[C@@H](C(=O)N2CCC[C@@H]2C(N)=O)C(C)C)NC(=O)[C@H](Cc2c[nH]c3ccccc23)NC(=O)[C@H](CCCNC(=N)N)NC(=O)[C@@H](Cc2ccc3ccccc3c2)NC(=O)[C@H](Cc2c[nH]cn2)NC(=O)[C@@H]2CCCN2C1=O) [D1] | 5.81 | 74.5 | > 10 | 49.4
LDPFFRWKVP (lactam 2-8) [B3] | – | 0.83 | – | 4.41
Ac-[Nle]D[Hyp][d2Nal]RWPK[dV][dP]-NH2 (lactam 2-8; SMILES CCCC[C@H](NC(C)=O)C(=O)N[C@H]1CC(=O)NCCCC[C@@H](C(=O)N[C@@H](C(=O)N2CCC[C@@H]2C(N)=O)C(C)C)NC(=O)[C@@H]2CCCN2C(=O)[C@H](Cc2c[nH]c3ccccc23)NC(=O)[C@H](CCCNC(=N)N)NC(=O)[C@@H](Cc2ccc3ccccc3c2)NC(=O)[C@@H]2C[C@@H](O)CN2C1=O) [D4] | > 10 | 50.1 | – | 21
Ac-[Nle]DPFFRWK[dV][dP]-NH2 (lactam 2-8; SMILES CCCC[C@H](NC(C)=O)C(=O)N[C@H]1CC(=O)NCCCC[C@@H](C(=O)N[C@@H](C(=O)N2CCC[C@@H]2C(N)=O)C(C)C)NC(=O)[C@H](Cc2c[nH]c3ccccc23)NC(=O)[C@H](CCCNC(=N)N)NC(=O)[C@H](Cc2ccccc2)NC(=O)[C@H](Cc2ccccc2)NC(=O)[C@@H]2CCCN2C1=O) [B1] | – | 6.86 | – | 12.7

Other lines, results leading:

IC50 (cAMP by HTRF, antagonist dose-response) [1] [µM] | Max Activation % [1] [%] | IC50 (cAMP by HTRF, antagonist dose-response) [2] [µM] | Max Activation % [2] [%] | Binder
> 10 | 24.6 | – | 41.5 | Ac-[Nle]DPH[d2Nal]RWK[dP][dV]-NH2 (lactam 2-8; SMILES CCCC[C@H](NC(C)=O)C(=O)N[C@H]1CC(=O)NCCCC[C@@H](C(=O)N2CCC[C@@H]2C(=O)N[C@@H](C(N)=O)C(C)C)NC(=O)[C@H](Cc2c[nH]c3ccccc23)NC(=O)[C@H](CCCNC(=N)N)NC(=O)[C@@H](Cc2ccc3ccccc3c2)NC(=O)[C@H](Cc2c[nH]cn2)NC(=O)[C@@H]2CCCN2C1=O) [D5]
– | 0.47 | – | 3.02 | IDPWRWKVP [C8]
1.36 | 101 | 0.0571 | 120 | Ac-[Nle]DP[d2Nal]RWK[dP][dV]-NH2 (lactam 2-7; SMILES CCCC[C@H](NC(C)=O)C(=O)N[C@H]1CC(=O)NCCCC[C@@H](C(=O)N2CCC[C@@H]2C(=O)N[C@@H](C(N)=O)C(C)C)NC(=O)[C@H](Cc2c[nH]c3ccccc23)NC(=O)[C@H](CCCNC(=N)N)NC(=O)[C@@H](Cc2ccc3ccccc3c2)NC(=O)[C@@H]2CCCN2C1=O) [TCMCB02]
– | 1.24 | – | 5.89 | VDPWRWKVP [C9]
0.0434 | 112 | 0.0269 | 118 | Ac-[Nle]DP[d2Nal]RWK[dV][dP]-NH2 (lactam 2-7) [TCMCB07]
– | 0.16 | – | 5.86 | LDPWRWKVP [C7]
– | -0.8 | – | 6.41 | VPWRWVP [C6]
– | 7.81 | – | 16.1 | LPFFRWVP [B4]
